Reference: patent US20240174712A1, “COMPOSITIONS AND METHODS FOR PURIFYING ALPHA-1 ANTITRYPSIN USING PEPTIDE LIGANDS” (North Carolina State University, priority 2022, published 2024)
No end group written: not given here.

B1: AAHFHKG-Toyopearl (peptide)
peptide: AAHFHKG-{Toyopearl AF‑Amino‑650M resin}
modifications: not fully specified; printed as AAHFHKG-Toyopearl
B2: ANAKIKKKG-Toyopearl (peptide)
peptide: ANAKIKKKG-{Toyopearl AF‑Amino‑650M resin}
modifications: not fully specified; printed as ANAKIKKKG-Toyopearl
B3: WHAKKSKFG-Toyopearl (peptide)
peptide: WHAKKSKFG-{Toyopearl AF‑Amino‑650M resin}
modifications: not fully specified; printed as WHAKKSKFG-Toyopearl
B4: WHAKKSHFG-Toyopearl (peptide)
peptide: WHAKKSHFG-{Toyopearl AF‑Amino‑650M resin}
modifications: not fully specified; printed as WHAKKSHFG-Toyopearl
B5: KAWFKHWNG-Toyopearl (peptide)
peptide: KAWFKHWNG-{Toyopearl AF‑Amino‑650M resin}
modifications: not fully specified; printed as KAWFKHWNG-Toyopearl
B6: NHNKIHG-Toyopearl (peptide)
peptide: NHNKIHG-{Toyopearl AF‑Amino‑650M resin}
B7: KHAWIFG-Toyopearl (peptide)
peptide: KHAWIFG-{Toyopearl AF‑Amino‑650M resin}
modifications: not fully specified; printed as KHAWIFG-Toyopearl
B8: FEKWAKAHG-Toyopearl (peptide)
peptide: FEKWAKAHG-{Toyopearl AF‑Amino‑650M resin}
modifications: not fully specified; printed as FEKWAKAHG-Toyopearl
B9: SHWHWAG-Toyopearl (peptide)
peptide: SHWHWAG-{Toyopearl AF‑Amino‑650M resin}
modifications: not fully specified; printed as SHWHWAG-Toyopearl
B10: KWKHSHKWG-Toyopearl (peptide)
peptide: KWKHSHKWG-{Toyopearl AF‑Amino‑650M resin}
modifications: not fully specified; printed as KWKHSHKWG-Toyopearl
B11: KFHAWNG-Toyopearl (peptide)
peptide: KFHAWNG-{Toyopearl AF‑Amino‑650M resin}
modifications: not fully specified; printed as KFHAWNG-Toyopearl
B12: FSHHSWKFG-Toyopearl (peptide)
peptide: FSHHSWKFG-{Toyopearl AF‑Amino‑650M resin}
modifications: not fully specified; printed as FSHHSWKFG-Toyopearl
B13: KHSKAIAAG-Toyopearl (peptide)
peptide: KHSKAIAAG-{Toyopearl AF‑Amino‑650M resin}
modifications: not fully specified; printed as KHSKAIAAG-Toyopearl

Assays:
human AAT = biological target: T1, human AAT (Homo sapiens, UniProt P01009); experiment: Static binding capacity and affinity of peptide-Toyopearl resins (AAT adsorption isotherms, Langmuir fit); conditions: pure AAT in PBS at pH 7.4; Langmuir isotherm fit
T1 construct: purchased CSL Behring (King of Prussia, PA, USA)
Protocol: Static binding capacity and affinity of peptide-Toyopearl resins. […] Aliquots of 50 μL of peptide-Toyopearl resin were transferred in a tube, swollen in 20% v/v aqueous methanol, washed in MilliQ water, and finally equilibrated in PBS at pH 7.4. The resin aliquots were individually incubated with 0.5 mL of a solution of AAT at different concentrations (0.1, 0.25, 0.5, 0.75, 1.0, 1.5, 2.0, and 5.0 mg/mL) for 1.5 hrs at room temperature under gentle rotation. After incubation, the resin aliquots were centrifuged and the supernatants collected as unbound (UB) fraction; the resins were also washed with 0.5 mL of PBS for 30 min, and the supernatants were combined with the corresponding UB fractions. These were finally analyzed by Micro BCA Protein Assay kit to determine the concentration C* of unbound AAT in solution at the equilibrium with the resin, from which the amount q of bound AAT per volume of resin was determined by mass balance. The values of q vs. C* were plotted and fit using a Langmuir isotherm (Equation 1) to determine the values of maximum binding capacity (Qmax) and affinity dissociation constant (KD)).
Evaluation of AAT-binding peptides via in vitro and in silico AAT binding studies. […] Toyopearl resin was selected for ligand conjunction owing to its high chemical and mechanical stability as well as low non-specific protein adsorption, which make it an ideal substrate for direct peptide conjugation and protein chromatography.

[1] = biological target: T2, Human Alpha-1 antitrypsin (AAT) (human, UniProt P01009 25-418); experiment: dynamic binding capacity at 10% breakthrough, Tris buffer pH 7.4, residence time 2 or 5 min
T2 construct: Pure AAT in buffer, as used in the isotherm and breakthrough studies; also called α-1 antitrypsin; human AAT

[2] = biological target: T2, Human Alpha-1 antitrypsin (AAT); experiment: static adsorption isotherm, pure AAT in PBS pH 7.4, Langmuir fit
Protocol: Static binding capacity and affinity of peptide-Toyopearl resins. The selected sequences were synthesized on Toyopearl AF-Amino 650 M resin as described herein and evaluated via isotherm binding studies of AAT in non-competitive mode (e.g., pure AAT in PBS at pH 7.4) as described in prior work. Aliquots of 50 μL of peptide-Toyopearl resin were transferred in a tube, swollen in 20% v/v aqueous methanol, washed in MilliQ water, and finally equilibrated in PBS at pH 7.4. The resin aliquots were individually incubated with 0.5 mL of a solution of AAT at different concentrations (0.1, 0.25, 0.5, 0.75, 1.0, 1.5, 2.0, and 5.0 mg/mL) for 1.5 hrs at room temperature under gentle rotation. After incubation, the resin aliquots were centrifuged and the supernatants collected as unbound (UB) fraction; the resins were also washed with 0.5 mL of PBS for 30 min, and the supernatants were combined with the corresponding UB fractions. These were finally analyzed by Micro BCA Protein Assay kit to determine the concentration C* of unbound AAT in solution at the equilibrium with the resin, from which the amount q of bound AAT per volume of resin was determined by mass balance. The values of q vs. C* were plotted and fit using a Langmuir isotherm (Equation 1) to determine the values of maximum binding capacity (Qₘₐₓ) and affinity dissociation constant (KD)).

[3] = biological target: T2, Human Alpha-1 antitrypsin (AAT); experiment: dynamic binding capacity at 10% breakthrough, PBS pH 7.4, residence time 2 min
Protocol: (§1) Dynamic binding capacity of peptide Toyopearl resins. The dynamic binding capacity at 10% breakthrough (DBC_{10%}, mg of AAT per mL resin) of the selected peptide-Toyopearl resins and the control AAT Select resin was measured. A volume of 0.1 mL of resin was wet packed in a Vici Jour PEEK column, washed with 10 column volumes (CVs) of 20% v/v ethanol, deionized water (3 CVs), and finally equilibrated with 10 CVs of binding buffer. The binding buffers used in this study were (i) 0.15M NaCl in 20 mM Bis-Tris HCl buffer at pH 6.0, (ii) PBS buffer at pH 7.4, and (iii and iv) 0.15M NaCl in 50 mM Tris HCl buffer at pH 7.4 or pH 8.0. A volume of 2 mL of solution of human AAT at 1 mg/mL in PBS buffer was continuously loaded on the column at the flow rate of either 0.05 mL/min (residence time, RT: 2 min) or 0.02 mL/min (RT: 5 min). After loading, the resin was washed with 10 CVs of binding buffer at the flow rate of 0.1 mL/min. AAT elution was then performed with 20 CVs of PBS in 2 M MgCl₂ at pH 7.4 at the flow rate of 0.2 mL/min. The resin was regenerated with 10 CVs of glycine buffer at pH 2.0 at the flow rate of 0.2 mL/min. The effluents were continuously monitored by UV spectrometry at 280 nm and the resulting chromatograms were utilized to calculate the DBC_{10%} of AAT.
(§2) Evaluation of AAT-binding peptides via dynamic binding measurements. Following the equilibrium binding studies, the selected peptide-Toyopearl resins were evaluated under dynamic conditions to evaluate the interplay of kinetic factors—chiefly, the AAT transport within the chromatographic particles and the formation of AAT:peptide complexes—on the resultant binding capacity. To that end, the dynamic binding capacity at 10% breakthrough (DBC_{10%}, mg of AAT per mL of resin) of the peptide-Toyopearl resins was measured at two values of residence time (RT), namely 2 and 5 min, and four different buffer compositions, namely 20 mM Bis-Tris HCl buffer (0.15M NaCl) at pH 6.0, PBS buffer at pH 7.4, and 50 mM Tris HCl buffer (0.15M NaCl) at pH 7.4 and 8.0, and compared with that of AAT Select from Cytiva (FIG. 4; the corresponding breakthrough curves are reported in FIG. 9).

[4] = biological target: T2, Human Alpha-1 antitrypsin (AAT); experiment: dynamic binding capacity at 10% breakthrough, PBS pH 7.4, residence time 5 min
Protocol: as §1, §2

T2 sequence (P01009 25-418 limits assumed): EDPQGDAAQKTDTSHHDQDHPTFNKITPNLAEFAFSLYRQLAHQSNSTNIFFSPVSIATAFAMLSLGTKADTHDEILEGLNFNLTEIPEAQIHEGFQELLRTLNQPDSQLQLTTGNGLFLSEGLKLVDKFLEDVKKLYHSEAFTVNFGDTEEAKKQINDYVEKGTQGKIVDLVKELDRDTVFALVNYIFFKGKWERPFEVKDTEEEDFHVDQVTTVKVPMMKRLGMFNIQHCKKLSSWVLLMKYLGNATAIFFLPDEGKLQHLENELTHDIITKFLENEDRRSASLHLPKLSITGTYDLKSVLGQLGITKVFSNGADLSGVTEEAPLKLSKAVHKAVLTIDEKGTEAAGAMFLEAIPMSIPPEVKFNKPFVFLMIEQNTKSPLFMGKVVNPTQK
T1 sequence (P01009 25-418): as the sequence (P01009 25-418 limits assumed) above

Kd [2] [µM]	Qmax [2] [mgAAT per mLR]	also measured	Molecule
–	–	Qmax (mgAAT per mLR) (human AAT): 8.9 mgAAT per mLR	KFHAWNG-Toyopearl: peptide ligand KFHAWNG conjugated on Toyopearl AF-Amino-650M resin (KFHAWNG-{Toyopearl AF‑Amino‑650M resin})
0.51	–	DBC10% [1]: 12 mg/mL; Qmax (mgAAT per mLR) [2]: 13.5; DBC10% [3]: 12.3 mg/mL; DBC10% [4]: 12.8 mg/mL	Alpha-1 Antitrypsin Select resin
–	–	Qmax (mgAAT per mLR) (human AAT): 6.3 mgAAT per mLR	NHNKIHG-Toyopearl: peptide ligand NHNKIHG conjugated on Toyopearl AF-Amino-650M resin (NHNKIHG-{Toyopearl AF‑Amino‑650M resin})
–	–	Qmax (mgAAT per mLR) (human AAT): 7.2 mgAAT per mLR	KHAWIFG-Toyopearl: peptide ligand KHAWIFG conjugated on Toyopearl AF-Amino-650M resin (KHAWIFG-{Toyopearl AF‑Amino‑650M resin})
–	–	Qmax (mgAAT per mLR) (human AAT): 7.0 mgAAT per mLR	SHWHWAG-Toyopearl: peptide ligand SHWHWAG conjugated on Toyopearl AF-Amino-650M resin (SHWHWAG-{Toyopearl AF‑Amino‑650M resin})
4.71	8.7	–	B1
6.7	3.51	–	B2
2.09	12.9	DBC10% [3]: 10.3 mg/mL; DBC10% [4]: 12.7 mg/mL	B3
0.95	16.3	DBC10% [3]: 9.3 mg/mL; DBC10% [4]: 12.5 mg/mL	B4
0.87	10.2	–	B5
2.32	6.3	–	B6
1.42	7.2	–	B7
4.67	5.1	–	B8
3.28	7	–	B9
0.63	15.8	DBC10% [3]: 8.9 mg/mL; DBC10% [4]: 11.6 mg/mL	B10
2.48	8.9	–	B11
3.63	9.4	–	B12
3.62	9.1	–	B13
